We go through 16 molecules from patent US20230340155A1 (published 2023).

Changes are numbered by the printed parent chain. Names may count otherwise.

As usually defined, the Kd is a measure of binding affinity in units of concentration. Broadly, the koff is the rate constant with which the complex falls apart. Usually kon stands for the rate constant with which the complex forms. The low end stands for slow association, the high end for fast association.

In one test the target is T1, cyno PD-1 (SPR analyte) (cynomolgus monkey).
T1 construct: Construct of the soluble analyte is not described; also called cynomolgus PD-1
Kind of test: SPR, ProteOn XPR36, mAb captured by anti-human IgG Fc, cyno PD-1 as analyte, 25 C. As for the experimental part:
Affinity measurements were performed using a ProteOn XPR36 system (BioRad). […] Approximately 5000 RU (response units) of mAbs were immobilized. The kinetic experiments were performed at 25° C. in running buffer (DPBS+0.01% P20+100 µg/mL BSA). To perform kinetic experiments, 200 RU of mAbs were captured followed by injections of analytes (human and cyno PD-1) at concentrations ranging from 1.563 nM to 400 nM (in a 4-fold serial dilution). The association phase was monitored for 3 minutes at 50 µL/min, then followed by 10 or 15 minutes of buffer flow (dissociation phase). The chip surface was regenerated with two 18 second pulses of 100 mM H₃PO₄ (Sigma, Cat#7961) at 100 µL/min.
The collected data were processed using ProteOn Manager software. First, the data was corrected for background using inter-spots. Then, double reference subtraction of the data was performed by using the buffer injection for analyte injections. The kinetic analysis of the data was performed using a Langmuir 1:1 binding model. The result for each mAb was reported in the format of ka (On-rate), kd (Off-rate) and KD (equilibrium dissociation constant).
Affinity of the antibodies to human and cyno PD-1 was measured using SPR as described in Example 1.
On the technique in general: SPR reads the build-up and loss of mass on a sensor chip optically.

Test [1] has as its target T2, biotinylated Human PD-1/PDCD1 (Acro Biosystems, Cat# PD1-H82E4) (human, UniProt Q15116 25-167, biotinylated).
T2 construct: Bought reagent; whole mature entry named
As to the kind of experiment: Fab ELISA, Fab captured by anti-Fd(CH1) antibody, 5 nM biotinylated human PD-1, streptavidin-HRP chemiluminescence. As for the experimental part:
For follow-up screening, plasmid DNA was prepared from overnight culture of the TG-1 Escherichia coli cells and the pIX gene was excised by NheI/SpeI digestion. After ligation, the DNA was transformed into TG-1 cells and grown on LB/Agar plates overnight. The next day, colonies were picked, grown overnight, and the cultures used for (i) colony sequencing of the V- regions, and (ii) induction of Fab production. For Fab production, the overnight culture was diluted 100 folds in new media and grown for 5-6 hours at 37° C. Fab production was induced by the addition of fresh media containing IPTG and the cultures were grown overnight at 30° C. The following day, the cultures were spun down and the supernatants, containing the soluble Fab proteins, were used for Fab ELISA. For the ELISA, the soluble Fab proteins were captured onto plates by a polyclonal anti-Fd(CH1) antibody. After washing and blocking, biotinylated Human PD-1/PDCD1 was added at 5 nM concentration. […] The biotinylated human PD-1 was detected by HRP-conjugated streptavidin with chemiluminescence measured in a plate reader.

T2 sequence (Q15116 25-167 limits assumed): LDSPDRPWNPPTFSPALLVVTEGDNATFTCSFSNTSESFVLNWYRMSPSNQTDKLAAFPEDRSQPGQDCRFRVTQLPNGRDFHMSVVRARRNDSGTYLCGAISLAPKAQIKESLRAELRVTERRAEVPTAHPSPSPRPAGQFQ

B1: PD1B1085 (antibody, human IgG1, kappa, V domains shown)
VH: QVQLVQSGSELKKPGASVKVSCKASGYTFTDYSMHWVRQAPGQGLEWMGWINIETGYPTYAQGFTGRFVFSLDTSVSTAYLQISSLKAEDTAVYFCARDYYGTYFYAMDYWGQGTLVTVSS
VL: EIVLTQSPATLSLSPGERATLSCTASSSVSSSYLHWYQQKPGLAPRLLIYSTSNLASGIPDRFSGSGSGTDYTLTISRLEPEDFAVYYCHQYHRSPLTFGQGTKLEIKR
notes: IgG1; also called PD1H585/PD1L469; E57Y (VH) variant of PD1B878
With B1, in the test with cyno PD-1 (SPR analyte), binding was characterised by a dissociation constant (Kd) of 6.45 nM, the koff is 0.00129 s⁻¹ and the kon worked out at 200000 M⁻¹ s⁻¹.

B2: PD1B878 Fab variant with heavy chain PD1H585 (E57Y) (Fab, V domains shown)
VH: B1 VH
VL: EIVLTQSPATLSLSPGERATLSCTASSSVSSSYLHWYQQKPGLAPRLLIYSTSNLASGIPDRFSGSGSGTDYTLTISRLEPEDFAVYYCHQYHRSPLTFGQGTKLEIK
notes: Soluble Fab of the non-combinatorial CDR scan
In the case of B2, the “fold change in ELISA binding versus the parental Fab” value (from here on “fold change”) in test [1] amounted to 10 fold.

B3: PD1B1091 (antibody, human IgG1, kappa, V domains shown)
VH: B1 VH with Y57H
VL: B1 VL with V29F
notes: IgG1; also called PD1H586/PD1L651; E57H (VH), V29F (VL) variant of PD1B878
In the test with cyno PD-1 (SPR analyte), B3 showed a Kd of 9.32 nM, a koff of 0.000924 s⁻¹ and a kon of 99100 M⁻¹ s⁻¹.

B4: PD1B878 Fab variant with light chain PD1L652 (S30P) (Fab, V domains shown)
VH: B1 VH with Y57E
VL: B2 VL with S30P
notes: as for B2
Regarding B4, the “fold change” value in test [1] was found to be 10 fold.

B5: PD1B1090 (antibody, human IgG1, kappa, V domains shown)
VH: B1 VH
VL: B1 VL with V29F
notes: IgG1; also called PD1H585/PD1L651; E57Y (VH), V29F (VL) variant of PD1B878
B5: in the test with cyno PD-1 (SPR analyte), the affinity, expressed as Kd, was 1.43 nM; the koff worked out at 0.000185 s⁻¹; the kon was determined as 130000 M⁻¹ s⁻¹.

B6: PD1B1089 (antibody, human IgG1, kappa, V domains shown)
VH: B1 VH with Y57E
VL: B1 VL with S30P
notes: IgG1; also called PD1H405/PD1L652; S30P (VL) variant of PD1B878
In the test with cyno PD-1 (SPR analyte), B6 registered a dissociation constant Kd of 90 nM, an off-rate (koff) of 0.00839 s⁻¹ and a kon of 93200 M⁻¹ s⁻¹.

B7: PD1B878 Fab variant with heavy chain PD1H586 (E57H) (Fab, V domains shown)
VH: B1 VH with Y57H
VL: B2 VL
notes: as for B2
On to B7, for which the “fold change” value in test [1] was 10 fold.

B8: PD1B878 Fab variant with light chain PD1L651 (V29F) (Fab, V domains shown)
VH: B1 VH with Y57E
VL: B2 VL with V29F
notes: as for B2
Consider B8, for which the “fold change” value in test [1] was 10 fold.

B9: PD1B1092 (antibody, human IgG1, kappa, V domains shown)
VH: B1 VH with Y57W
VL: B1 VL with V29F
notes: IgG1; also called PD1H587/PD1L651; E57W (VH), V29F (VL) variant of PD1B878
On to B9, for which, in the test with cyno PD-1 (SPR analyte), binding was put at a Kd of 3.18 nM, the off-rate (koff) was 0.000411 s⁻¹ and the kon was determined as 129000 M⁻¹ s⁻¹.

B10: PD1B1088 (antibody, human IgG1, kappa, V domains shown)
VH: B1 VH with Y57E
VL: B1 VL with V29F
notes: IgG1; also called PD1H405/PD1L651; V29F (VL) variant of PD1B878
As for B10, in the test with cyno PD-1 (SPR analyte), the Kd is 72.4 nM, the dissociation rate constant (koff) came to 0.00479 s⁻¹ and the kon is 66100 M⁻¹ s⁻¹.

B11: PD1B1094 (antibody, human IgG1, kappa, V domains shown)
VH: B1 VH with Y57H
VL: B1 VL with S30P
notes: IgG1; also called PD1H586/PD1L652; E57H (VH), S30P (VL) variant of PD1B878
In the test with cyno PD-1 (SPR analyte), B11 displayed a Kd of 12 nM, an off-rate constant (koff) of 0.00162 s⁻¹ and an on-rate constant (kon) of 135000 M⁻¹ s⁻¹.

B12: PD1B1095 (antibody, human IgG1, kappa, V domains shown)
VH: B1 VH with Y57W
VL: B1 VL with S30P
notes: IgG1; also called PD1H587/PD1L652; E57W (VH), S30P (VL) variant of PD1B878
Take B12: in the test with cyno PD-1 (SPR analyte), the dissociation constant (Kd) worked out at 4.23 nM, the koff came to 0.000781 s⁻¹ and the kon was 185000 M⁻¹ s⁻¹.

B13: PD1B878 Fab variant with heavy chain PD1H587 (E57W) (Fab, V domains shown)
VH: B1 VH with Y57W
VL: B2 VL
notes: as for B2
Take B13: the “fold change” value in test [1] was determined as 10 fold.

B14: PD1B1086 (antibody, human IgG1, kappa, V domains shown)
VH: B1 VH with Y57H
VL: B1 VL
notes: IgG1; also called PD1H586/PD1L469; E57H (VH) variant of PD1B878
In the test with cyno PD-1 (SPR analyte), B14 yielded a Kd of 31.8 nM, a koff of 0.00544 s⁻¹ and an on-rate constant (kon) of 171000 M⁻¹ s⁻¹.

B15: PD1B1093 (antibody, human IgG1, kappa, V domains shown)
VH: B1 VH
VL: B1 VL with S30P
notes: IgG1; also called PD1H585/PD1L652; E57Y (VH), S30P (VL) variant of PD1B878
On to B15, for which, in the test with cyno PD-1 (SPR analyte), the Kd turned out to be 2.18 nM, the koff was determined as 0.000368 s⁻¹ and the kon amounted to 169000 M⁻¹ s⁻¹.

B16: PD1B1087 (antibody, human IgG1, kappa, V domains shown)
VH: B1 VH with Y57W
VL: B1 VL
notes: IgG1; also called PD1H587/PD1L469; E57W (VH) variant of PD1B878
For B16, in the test with cyno PD-1 (SPR analyte), binding was put at a Kd of 11.6 nM, the koff came to 0.00247 s⁻¹ and the kon was determined as 212000 M⁻¹ s⁻¹.
